Consider one molecule from paper PMC3417120 (Cancer research, 2012).

For this assay, the target named is p53, recombinant (UniProt P04637 1-393). Briefly: BLI.
Sequence of p53, recombinant (P04637 whole entry): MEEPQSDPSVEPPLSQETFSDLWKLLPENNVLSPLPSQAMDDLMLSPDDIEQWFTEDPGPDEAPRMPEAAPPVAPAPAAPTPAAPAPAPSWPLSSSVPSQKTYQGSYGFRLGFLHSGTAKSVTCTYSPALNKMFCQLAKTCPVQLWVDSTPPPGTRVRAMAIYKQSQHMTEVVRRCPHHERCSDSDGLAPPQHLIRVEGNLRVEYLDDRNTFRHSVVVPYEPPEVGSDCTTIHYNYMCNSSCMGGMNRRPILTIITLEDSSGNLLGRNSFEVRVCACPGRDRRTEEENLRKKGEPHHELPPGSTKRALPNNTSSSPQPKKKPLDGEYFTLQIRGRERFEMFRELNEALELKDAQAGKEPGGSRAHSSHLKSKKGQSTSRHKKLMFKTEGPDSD

B1: recombinant HMGB1 B box (domain or fragment)
chain: KFKDPNAPKRPPSAFFLFCSEYRPKIKGEHPGLSIGDVAKKLGEMWNNTAADDKQPYEKKAAKLKEKYEKDIAAY
modifications: Limits not given; 88-162 is the usual B box construct of the source laboratory (Tracey).
Regarding B1, the Kd turned out to be 14.5 nM.
